Assay results taken from patent US20260167699A1 (Chugai, published 2026).

T1: FcγRIIa(R) (human, UniProt P12318 34-217)
T1 construct: extracellular domain; also called FcγRIIa R type; 2aR
T1 sequence: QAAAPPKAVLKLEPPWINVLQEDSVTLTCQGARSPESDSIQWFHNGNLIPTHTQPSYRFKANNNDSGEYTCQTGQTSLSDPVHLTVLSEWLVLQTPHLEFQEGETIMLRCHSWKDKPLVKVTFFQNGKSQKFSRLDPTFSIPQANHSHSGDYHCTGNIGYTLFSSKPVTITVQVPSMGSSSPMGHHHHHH

T2: FcγRIIb (human, UniProt P31994 43-217)
T2 construct: extracellular domain; also called 2b
T2 sequence: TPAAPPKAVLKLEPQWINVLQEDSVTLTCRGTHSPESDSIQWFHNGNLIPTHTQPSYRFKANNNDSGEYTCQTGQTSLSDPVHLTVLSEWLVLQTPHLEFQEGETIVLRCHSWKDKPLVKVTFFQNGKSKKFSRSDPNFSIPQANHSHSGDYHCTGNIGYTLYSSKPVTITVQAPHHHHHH

T3: FcγRIIa(H) (human, UniProt P12318 34-217)
T3 construct: extracellular domain; also called FcγRIIa H type; 2aH
T3 sequence: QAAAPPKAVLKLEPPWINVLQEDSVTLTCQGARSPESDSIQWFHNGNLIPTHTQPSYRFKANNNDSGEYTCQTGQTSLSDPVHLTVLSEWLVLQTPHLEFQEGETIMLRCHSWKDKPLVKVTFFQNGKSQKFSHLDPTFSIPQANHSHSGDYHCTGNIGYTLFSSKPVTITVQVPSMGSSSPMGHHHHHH


Tests used:
Experiment in all cases: SPR (Biacore), binding relative to GpH7-A5/GpH7-B3/GpL16-k0 x100;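 note: surface plasmon resonance at 25 °C, antibody captured on a sensor chip and soluble FcγR flowed over it in HBS-EP+ running buffer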
FcγRIIa(R) = target: T1, FcγRIIa(R)
Procedure: (§1) The antibody of interest was analyzed for its interaction with FcγR using a BiaCore™ T100, BiaCore™ A100, or BiaCore™ 4000 surface plasmon resonance system (GE Healthcare Japan Corp.). The running buffer used was HBS-EP+ (GE Healthcare Japan Corp.). The assay temperature was set to 25° C. The sensor chips used were: a chip prepared by immobilizing antigenic peptides onto Series S Sensor Chip CM5 (GE Healthcare Japan Corp.) by the amine coupling method; a chip prepared by immobilizing antigenic peptides biotinylated in advance onto Series S Sensor Chip SA (certified) (GE Healthcare Japan Corp.) through their interaction; a chip prepared by immobilizing protein L (ACTIGEN, BioVision, Inc.) onto Series S Sensor Chip CM5 (GE Healthcare Japan Corp.); and a chip prepared by immobilizing protein A/G (Thermo Fisher Scientific K.K.) onto Series S Sensor Chip CM5 (GE Healthcare Japan Corp.). The antibody of interest was captured onto any of these chips and allowed to interact with FcγR diluted with a running buffer. The antibody captured on the chip was washed off through the reaction of 10 mM glycine-HCl (pH 1.5) to regenerate the chip, which was repetitively used.

FcγRIa = target: T4, FcγRIa (human, UniProt P12314 16-292)
T4 construct: extracellular domain; also called 1a
Procedure: as §1

FcγRIIb = target: T2, FcγRIIb
Procedure: as §1

FcγRIIa(H) = target: T3, FcγRIIa(H)
Procedure: as §1

T4 sequence (P12314 other isoform, or with tags, fused parts or gaps): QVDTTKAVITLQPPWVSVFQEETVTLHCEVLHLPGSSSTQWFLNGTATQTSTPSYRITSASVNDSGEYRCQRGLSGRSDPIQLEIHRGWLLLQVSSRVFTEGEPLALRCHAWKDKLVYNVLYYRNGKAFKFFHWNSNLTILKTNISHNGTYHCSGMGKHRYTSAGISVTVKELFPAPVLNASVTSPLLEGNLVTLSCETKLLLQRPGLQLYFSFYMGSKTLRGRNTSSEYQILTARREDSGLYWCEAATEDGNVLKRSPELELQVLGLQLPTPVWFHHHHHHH

Row | Binder | He/Con 2aR (FcγRIIa(R)) [%] | He/Con 1a (FcγRIa) [%] | He/Con 2b (FcγRIIb) [%] | He/Con 2aH (FcγRIIa(H)) [%]
1 | GpH7-A5/GpH7-B3 variant L234_20W/GpL16-k0 (antibody, human IgG1, kappa, heterodimerized IgG1, one H chain mutated; also called He Ab) heavy 1: not shown heavy 2: not shown light: DIVMTQSPLSLPVTPGEPASISCQASESLVHSNRNTYLHWYLQKPGQSPQLLIYKVSNRFSGVPDRFSGSGSGTDFTLKISRVEAEDVGVYYCSQNTHVPPTFGQGTKVEIERTVAAPSVFIFPPSDEQLKSGTASVVCLLNNFYPREAKVQWKVDNALQSGNSQESVTEQDSKDSTYSLSSTLTLSKADYEKHKVYACEVTHQGLSSPVTKSFNRGEC | 125 | 102 | 131 | 126
2 | GpH7-A5/GpH7-B3 variant L235_02A/GpL16-k0 (antibody, human IgG1, kappa, heterodimerized IgG1, one H chain mutated; also called He Ab) heavy 1: not shown heavy 2: not shown light: DIVMTQSPLSLPVTPGEPASISCQASESLVHSNRNTYLHWYLQKPGQSPQLLIYKVSNRFSGVPDRFSGSGSGTDFTLKISRVEAEDVGVYYCSQNTHVPPTFGQGTKVEIERTVAAPSVFIFPPSDEQLKSGTASVVCLLNNFYPREAKVQWKVDNALQSGNSQESVTEQDSKDSTYSLSSTLTLSKADYEKHKVYACEVTHQGLSSPVTKSFNRGEC | 86.6 | 95.2 | 72 | 77.6
3 | GpH7-A5/GpH7-B3 variant L235_03V/GpL16-k0 (antibody, human IgG1, kappa, heterodimerized IgG1, one H chain mutated; also called He Ab) heavy 1: not shown heavy 2: not shown light: DIVMTQSPLSLPVTPGEPASISCQASESLVHSNRNTYLHWYLQKPGQSPQLLIYKVSNRFSGVPDRFSGSGSGTDFTLKISRVEAEDVGVYYCSQNTHVPPTFGQGTKVEIERTVAAPSVFIFPPSDEQLKSGTASVVCLLNNFYPREAKVQWKVDNALQSGNSQESVTEQDSKDSTYSLSSTLTLSKADYEKHKVYACEVTHQGLSSPVTKSFNRGEC | 83.4 | 97.8 | 75.8 | 94.9
4 | GpH7-A5/GpH7-B3 variant L235_04F/GpL16-k0 (antibody, human IgG1, kappa, heterodimerized IgG1, one H chain mutated; also called He Ab) heavy 1: not shown heavy 2: not shown light: DIVMTQSPLSLPVTPGEPASISCQASESLVHSNRNTYLHWYLQKPGQSPQLLIYKVSNRFSGVPDRFSGSGSGTDFTLKISRVEAEDVGVYYCSQNTHVPPTFGQGTKVEIERTVAAPSVFIFPPSDEQLKSGTASVVCLLNNFYPREAKVQWKVDNALQSGNSQESVTEQDSKDSTYSLSSTLTLSKADYEKHKVYACEVTHQGLSSPVTKSFNRGEC | 132 | 100 | 135 | 123
5 | GpH7-A5/GpH7-B3 variant L235_05P/GpL16-k0 (antibody, human IgG1, kappa, heterodimerized IgG1, one H chain mutated; also called He Ab) heavy 1: not shown heavy 2: not shown light: DIVMTQSPLSLPVTPGEPASISCQASESLVHSNRNTYLHWYLQKPGQSPQLLIYKVSNRFSGVPDRFSGSGSGTDFTLKISRVEAEDVGVYYCSQNTHVPPTFGQGTKVEIERTVAAPSVFIFPPSDEQLKSGTASVVCLLNNFYPREAKVQWKVDNALQSGNSQESVTEQDSKDSTYSLSSTLTLSKADYEKHKVYACEVTHQGLSSPVTKSFNRGEC | 74.6 | 97.8 | 62.4 | 64.2
6 | GpH7-A5/GpH7-B3 variant L235_06M/GpL16-k0 (antibody, human IgG1, kappa, heterodimerized IgG1, one H chain mutated; also called He Ab) heavy 1: not shown heavy 2: not shown light: DIVMTQSPLSLPVTPGEPASISCQASESLVHSNRNTYLHWYLQKPGQSPQLLIYKVSNRFSGVPDRFSGSGSGTDFTLKISRVEAEDVGVYYCSQNTHVPPTFGQGTKVEIERTVAAPSVFIFPPSDEQLKSGTASVVCLLNNFYPREAKVQWKVDNALQSGNSQESVTEQDSKDSTYSLSSTLTLSKADYEKHKVYACEVTHQGLSSPVTKSFNRGEC | 106 | 101 | 92.4 | 96.3
7 | GpH7-A5/GpH7-B3 variant L235_07I/GpL16-k0 (antibody, human IgG1, kappa, heterodimerized IgG1, one H chain mutated; also called He Ab) heavy 1: not shown heavy 2: not shown light: DIVMTQSPLSLPVTPGEPASISCQASESLVHSNRNTYLHWYLQKPGQSPQLLIYKVSNRFSGVPDRFSGSGSGTDFTLKISRVEAEDVGVYYCSQNTHVPPTFGQGTKVEIERTVAAPSVFIFPPSDEQLKSGTASVVCLLNNFYPREAKVQWKVDNALQSGNSQESVTEQDSKDSTYSLSSTLTLSKADYEKHKVYACEVTHQGLSSPVTKSFNRGEC | 102 | 103 | 100 | 99.5
8 | GpH7-A5/GpH7-B3 variant L235_09D/GpL16-k0 (antibody, human IgG1, kappa, heterodimerized IgG1, one H chain mutated; also called He Ab) heavy 1: not shown heavy 2: not shown light: DIVMTQSPLSLPVTPGEPASISCQASESLVHSNRNTYLHWYLQKPGQSPQLLIYKVSNRFSGVPDRFSGSGSGTDFTLKISRVEAEDVGVYYCSQNTHVPPTFGQGTKVEIERTVAAPSVFIFPPSDEQLKSGTASVVCLLNNFYPREAKVQWKVDNALQSGNSQESVTEQDSKDSTYSLSSTLTLSKADYEKHKVYACEVTHQGLSSPVTKSFNRGEC | 117 | 87.6 | 121 | 84.3
9 | GpH7-A5/GpH7-B3 variant L235_10E/GpL16-k0 (antibody, human IgG1, kappa, heterodimerized IgG1, one H chain mutated; also called He Ab) heavy 1: not shown heavy 2: not shown light: DIVMTQSPLSLPVTPGEPASISCQASESLVHSNRNTYLHWYLQKPGQSPQLLIYKVSNRFSGVPDRFSGSGSGTDFTLKISRVEAEDVGVYYCSQNTHVPPTFGQGTKVEIERTVAAPSVFIFPPSDEQLKSGTASVVCLLNNFYPREAKVQWKVDNALQSGNSQESVTEQDSKDSTYSLSSTLTLSKADYEKHKVYACEVTHQGLSSPVTKSFNRGEC | 98.7 | 96.9 | 90.8 | 80
10 | GpH7-A5/GpH7-B3 variant L235_13S/GpL16-k0 (antibody, human IgG1, kappa, heterodimerized IgG1, one H chain mutated; also called He Ab) heavy 1: not shown heavy 2: not shown light: DIVMTQSPLSLPVTPGEPASISCQASESLVHSNRNTYLHWYLQKPGQSPQLLIYKVSNRFSGVPDRFSGSGSGTDFTLKISRVEAEDVGVYYCSQNTHVPPTFGQGTKVEIERTVAAPSVFIFPPSDEQLKSGTASVVCLLNNFYPREAKVQWKVDNALQSGNSQESVTEQDSKDSTYSLSSTLTLSKADYEKHKVYACEVTHQGLSSPVTKSFNRGEC | 75.9 | 93.5 | 55 | 73.5
11 | GpH7-A5/GpH7-B3 variant L235_14T/GpL16-k0 (antibody, human IgG1, kappa, heterodimerized IgG1, one H chain mutated; also called He Ab) heavy 1: not shown heavy 2: not shown light: DIVMTQSPLSLPVTPGEPASISCQASESLVHSNRNTYLHWYLQKPGQSPQLLIYKVSNRFSGVPDRFSGSGSGTDFTLKISRVEAEDVGVYYCSQNTHVPPTFGQGTKVEIERTVAAPSVFIFPPSDEQLKSGTASVVCLLNNFYPREAKVQWKVDNALQSGNSQESVTEQDSKDSTYSLSSTLTLSKADYEKHKVYACEVTHQGLSSPVTKSFNRGEC | 70.6 | 91.6 | 53.4 | 79.5
12 | GpH7-A5/GpH7-B3 variant L235_15Y/GpL16-k0 (antibody, human IgG1, kappa, heterodimerized IgG1, one H chain mutated; also called He Ab) heavy 1: not shown heavy 2: not shown light: DIVMTQSPLSLPVTPGEPASISCQASESLVHSNRNTYLHWYLQKPGQSPQLLIYKVSNRFSGVPDRFSGSGSGTDFTLKISRVEAEDVGVYYCSQNTHVPPTFGQGTKVEIERTVAAPSVFIFPPSDEQLKSGTASVVCLLNNFYPREAKVQWKVDNALQSGNSQESVTEQDSKDSTYSLSSTLTLSKADYEKHKVYACEVTHQGLSSPVTKSFNRGEC | 150 | 100 | 170 | 135
13 | GpH7-A5/GpH7-B3 variant L235_16H/GpL16-k0 (antibody, human IgG1, kappa, heterodimerized IgG1, one H chain mutated; also called He Ab) heavy 1: not shown heavy 2: not shown light: DIVMTQSPLSLPVTPGEPASISCQASESLVHSNRNTYLHWYLQKPGQSPQLLIYKVSNRFSGVPDRFSGSGSGTDFTLKISRVEAEDVGVYYCSQNTHVPPTFGQGTKVEIERTVAAPSVFIFPPSDEQLKSGTASVVCLLNNFYPREAKVQWKVDNALQSGNSQESVTEQDSKDSTYSLSSTLTLSKADYEKHKVYACEVTHQGLSSPVTKSFNRGEC | 110 | 92.7 | 87.8 | 99.8
14 | GpH7-A5/GpH7-B3 variant L235_18N/GpL16-k0 (antibody, human IgG1, kappa, heterodimerized IgG1, one H chain mutated; also called He Ab) heavy 1: not shown heavy 2: not shown light: DIVMTQSPLSLPVTPGEPASISCQASESLVHSNRNTYLHWYLQKPGQSPQLLIYKVSNRFSGVPDRFSGSGSGTDFTLKISRVEAEDVGVYYCSQNTHVPPTFGQGTKVEIERTVAAPSVFIFPPSDEQLKSGTASVVCLLNNFYPREAKVQWKVDNALQSGNSQESVTEQDSKDSTYSLSSTLTLSKADYEKHKVYACEVTHQGLSSPVTKSFNRGEC | 77.3 | 95.2 | 62.7 | 73.5
